± gives the standard deviation of the averaged measurements.
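Further: ATP exposure 15 min at 22 °C before imaging.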

This series relates to ATP. The series is described as follows: switch fluorescence ratio, 500 uM ATP over buffer (Cy3 cluster intensity, sum of 5 cycles each) (fold (ratio)); higher = stronger signal-on switching upon ATP binding; sequences stand for … in TCGTCGGCAGCGTCAGATGTGTATAAGAGACAGTTTTTTTTTTTTTTTTTTTTTTTTT…TC. To be noted: aptamer strand: ATP DNA aptamer (quencher-CACCTGGGGGAGTATTGCGGAGGAAGG + anchor), 100 nM annealed; ATP concentration: 500 uM. In outline: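 Per cluster, summed Cy3 intensity from the target cycles was divided by that from the buffer cycles to give the fluorescence ratio, then averaged per switch-domain sequence. Clusters outside 100-1000 RFU were excluded. The Cy3-labelled switching-strand clusters, on a modified Illumina MiSeq flow-cell, were annealed to 100 nM quencher-labelled ATP aptamer and imaged in selection buffer, then after 15 min with 500 uM ATP at 22 °C, for five cycles with NaOH stripping and re-annealing between them.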
For TTGGCCTTTT, the switch fluorescence ratio is 1.09 ± 0.12. Then AACGGGTTAT, with 0.995 ± 0.032; and TTGGGCATTG, with 1.01 ± 0.017; and CAGGCATTAT, with 1.08 ± 0.043. As to ACAGCTGGGT, the switch fluorescence ratio was found to be 0.98 ± 0.015. The result for CTAGTCTTTT reads 0.982 ± 0.031. For TGGCAGTTTT, the switch fluorescence ratio was 1.02 ± 0.013. CGGTGTAGCT: the switch fluorescence ratio came to 1.03 ± 0.019.

In the case of AACATCTAGA, the switch fluorescence ratio was determined as 0.965 ± 0.011. The result for GGGGATTGCT reads 0.986 ± 0.025; that for CTTGCTATGC, 1.64 ± 0.4; that for AGTGTAATGT, 0.975 ± 0.059. Consider ACGGGTAGCA, for which the switch fluorescence ratio was found to be 0.999 ± 0.016. Then ATCGTGGGTG, with 0.984 ± 0.015.

With GAGTTTAATC, the switch fluorescence ratio is 1 ± 0.018. Regarding GGTTTTTGGA, the switch fluorescence ratio was 0.981 ± 0.038. Then GCGGCATAAT, with 1.02 ± 0.026; and GCGAGATGCG, with 0.972 ± 0.032; and TTTCGGAGTT, with 1.05 ± 0.071. The result for AAAGGGGGTC reads 1.01 ± 0.039. Then TTATCAGTTT, with 1.03 ± 0.062. For the sequence ATGGTATATA, the switch fluorescence ratio was 0.982 ± 0.025. In the case of GGCCTTGTGT, the switch fluorescence ratio came out at 1.0357 ± 0.00094. With TATAAACGGG, the switch fluorescence ratio amounted to 1 ± 0.024. The result for AGGTTGAGG reads 1.01 ± 0.021. The result for CACGGGGGGC reads 1.02 ± 0.054; that for TGAGGGGTTG, 1 ± 0.036. In the case of TCTGTGTATT, the switch fluorescence ratio turned out to be 1.03 ± 0.037. Take TTAGGACTAG: the switch fluorescence ratio worked out at 0.9698 ± 0.0048.

Consider TGGGGGGCGA, for which the switch fluorescence ratio worked out at 0.997 ± 0.011.

Turning to CAAAGTTATA, the switch fluorescence ratio amounted to 1.0129 ± 0.00033. The result for CCGAACACCT reads 1.219 ± 0.0037. Regarding TCGGAAGGAC, the switch fluorescence ratio stood at 1.141 ± 0.011. For the sequence GCGTGAGGGG, the switch fluorescence ratio was determined as 1.03 ± 0.05.

For the sequence CGCATTTTGC, the switch fluorescence ratio was 1.19 ± 0.15.

Take TTTGGAAAAA: the switch fluorescence ratio came out at 0.996 ± 0.032.

With TGAAGGACGT, the switch fluorescence ratio came to 0.996 ± 0.019. The result for TGAATGATGG reads 1.02 ± 0.015; that for TTAAAGCCGG, 0.966 ± 0.061.

Consider CCGTGAGTTT, for which the switch fluorescence ratio was determined as 1.07 ± 0.04. ATGGGCAGAT: the switch fluorescence ratio worked out at 0.994 ± 0.071. Then ATGAGGAGGT, with 0.979 ± 0.0036; and ATGAGACGTG, with 1.04 ± 0.037; and ACATTTTAAG, with 1 ± 0.026.

Consider CTCAGAATAG, for which the switch fluorescence ratio was 1.37 ± 0.075. Consider GGGAGATTAG, for which the switch fluorescence ratio is 0.979 ± 0.015. For GGGGCGGAGG, the switch fluorescence ratio is 0.987 ± 0.047. The result for CCATCGGCTG reads 1.06 ± 0.038; that for TGATGGTCGA, 1.02 ± 0.032.

Consider ACCCTCGAAT, for which the switch fluorescence ratio came out at 1.02 ± 0.011. The result for GAGAGGTCGG reads 1.012 ± 0.0016; that for GTTCTGGGGG, 0.984 ± 0.024. With GGATAGTCGG, the switch fluorescence ratio is 1 ± 0.028.

On to AATGGGTATT, for which the switch fluorescence ratio amounted to 0.987 ± 0.026. Consider GAATAAAAAC, for which the switch fluorescence ratio came to 1.01 ± 0.013. The result for CCTTATGGCG reads 0.996 ± 0.076. Then TTTTTTATAT, with 0.987 ± 0.025; and AGAAGAGGTG, with 1.07 ± 0.029; and TTTCATATGC, with 0.995 ± 0.073. For the sequence TTTTCGGTTT, the switch fluorescence ratio was determined as 1 ± 0.051. Turning to CTTTTTGACT, the switch fluorescence ratio came out at 1.01 ± 0.028. For the sequence TCCAGATTCT, the switch fluorescence ratio turned out to be 0.9828 ± 0.0086. The result for TCTGAAGATC reads 1.06 ± 0.065. Then AAGTTTGCGT, with 0.993 ± 0.022. Take TGCCGGACGA: the switch fluorescence ratio was 1.065 ± 0.0037. On to CCTTTTAGTT, for which the switch fluorescence ratio was 0.988 ± 0.026. The result for CGAGCTTTGA reads 1.034 ± 0.0084. Then CCAGTACTTC, with 1.11 ± 0.023. Then TACGTCACCT, with 1.71 ± 0.048. For the sequence GGACCAAGTG, the switch fluorescence ratio was 1.03 ± 0.025.

Turning to CAGGGTGTGG, the switch fluorescence ratio stood at 0.976 ± 0.014.

Turning to TTTGGAAGCC, the switch fluorescence ratio came to 1 ± 0.041. Regarding ATGTGCTGGT, the switch fluorescence ratio is 0.991 ± 0.021. GGCGGGAGGA: the switch fluorescence ratio was found to be 1.02 ± 0.025. ATGGATGCCT: the switch fluorescence ratio was 1.01 ± 0.051.

In the case of AGTGTTTGCC, the switch fluorescence ratio was 1.036 ± 0.0035. Then TGTTTCGTGG, with 0.971 ± 0.02. Then GTAATTTGGT, with 0.9904 ± 0.0032; and TACGGGGTGC, with 1.07 ± 0.095.

With TGCGTATGAA, the switch fluorescence ratio was found to be 0.9796 ± 0.0097. TGGGCTATGC: the switch fluorescence ratio amounted to 0.986 ± 0.059. Then AGATCTATAC, with 1.018 ± 0.0096; and TAGTAGTCAA, with 1.03 ± 0.011.

Turning to CGTCTAGAA, the switch fluorescence ratio was 0.963 ± 0.048. The result for CCGTAATTGA reads 2.75 ± 0.16; that for CCTCCCTTTT, 2.2 ± 0.4; that for TCGGGGGGGG, 1 ± 0.036.

As for TTAAAATCGA, the switch fluorescence ratio was determined as 0.972 ± 0.072.

Consider AATACCTGAA, for which the switch fluorescence ratio was determined as 1.17 ± 0.017. As for GGGGATACGC, the switch fluorescence ratio stood at 1.03 ± 0.012. Then GTGGTCGGGT, with 0.974 ± 0.044; and ACTAGCTTGT, with 1.04 ± 0.026. Then GGAGAGGGGC, with 0.996 ± 0.091. Consider TTACGGGTCC, for which the switch fluorescence ratio turned out to be 0.961 ± 0.012. Then CCTGGGGGGA, with 1.02 ± 0.059; and ATGTATGGGC, with 0.9814 ± 0.0047. The result for TTTGTCGTAA reads 0.999 ± 0.0014; that for TTCATAGTAC, 1.2 ± 0.22. As to GAAGTCTTAA, the switch fluorescence ratio was found to be 1 ± 0.033.

On to CCTGGGGGAT, for which the switch fluorescence ratio was found to be 1.75 ± 0.43. Consider GACGTATAG, for which the switch fluorescence ratio turned out to be 0.994 ± 0.022. Regarding GGATGGGGCT, the switch fluorescence ratio is 1.02 ± 0.03. The result for AAATCACGTC reads 1.07 ± 0.019; that for ATCTTCTTAG, 0.977 ± 0.051. On to AACAAATTTT, for which the switch fluorescence ratio is 1.012 ± 0.0097. Then GCATTTTTAC, with 1.19 ± 0.023; and ACTAAGTAAC, with 1.04 ± 0.037. The result for CCGACGTAGG reads 2.494 ± 0.017. On to CCATTCATTT, for which the switch fluorescence ratio was found to be 0.991 ± 0.02. Then CATGGTACGC, with 1.055 ± 0.0043. As for CACGGGCGGG, the switch fluorescence ratio amounted to 1.05 ± 0.063. For CAGCAGCTGG, the switch fluorescence ratio was 1.05 ± 0.034. Then TGGGTTATGC, with 0.984 ± 0.018. GGGGTAGTTG: the switch fluorescence ratio worked out at 0.99 ± 0.028.

As to GGGAGGTTTT, the switch fluorescence ratio was determined as 1.04 ± 0.084. The result for GCGAAAGTTG reads 1.014 ± 0.0032; that for AAGAAGTAGG, 1 ± 0.062. As for TGGGGGGGAG, the switch fluorescence ratio was 0.996 ± 0.029. Then TGTTTGTGAT, with 1.003 ± 0.0098.

TTTAATCAGG: the switch fluorescence ratio was found to be 1.04 ± 0.025.
